This is an account of results in PMC466946 (Science Advances, 2024).

For this assay, the target named is SARS-CoV-2 S ectodomain trimer (SΔTM), wild type (SARS-CoV-2, UniProt P0DTC2). In words: SPR. (In SPR one partner is held on a chip, and binding of the other changes the refractive index at the surface.)

B1: neutralizing monoclonal antibody 4A8 (NTD-directed), human IgG1 kappa (antibody, V domains shown)
VH: EVQLVESGAEVKKPGASVKVSCKVSGYTLTELSMHWVRQAPGKGLEWMGGFDPEDGETMYAQKFQGRVTMTEDTSTDTAYMELSSLRSEDTAVYYCATSTAVAGTPDLFDYYYGMDVWGQGTTVTVSS
VL: EIVMTQSPLSSPVTLGQPASISCRSSQSLVHSDGNTYLSWLQQRPGQPPRLLIYKISNRFSGVPDRFSGSGAGTDFTLKISRVEAEDVGVYYCTQATQFPYTFGQGTKVDIK
Consider B1, for which the Kd (as a rule, the free concentration of one partner at which half of the binding sites on the other are occupied at equilibrium, for simple one-to-one binding) came out at 0.42 ± 0.07 nM.
